Experimental data published in patent publication US10184115B2, “Mutated cellobiose dehydrogenase with increased substrate specificity” (DIRECTSENS GMBH, priority 2012, dated 2019).

What was measured:
[1] = substrate: OC[C@H]1OC(O)[C@H](O)[C@@H](O)[C@@H]1O; experiment: purified protein, by the assay type; conditions: other: apparent, wt, DCIP assay, pH 5.5, 30° C.
[2] = substrate: OC[C@H]1O[C@H](O[C@H]2[C@H](O)[C@@H](O)C(O)O[C@@H]2CO)[C@H](O)[C@@H](O)[C@@H]1O; experiment: purified protein, by the assay type; conditions: other: apparent, wt, DCIP assay, pH 5.5, 30° C.
Procedure: Enzyme activity was assayed at 30° C. using either the DCIP (Karapetyan et al., 2005 Journal of Biotechnology 121: 34-48) or cytochrome c (Canevascini et al., 1991, European Journal of Biochemistry 198: 43-52) as electron acceptor. […] Stock solutions of carbohydrates used for kinetic measurements were prepared in the respective buffer and allowed to stand overnight for mutarotation, while stock solutions of electron acceptors were prepared in water and immediately used. The reaction stoichiometry is 1 for the two-electron acceptor DCIP (1 mole of DCIP reduced per mole of carbohydrate oxidized), but 2 for the one-electron acceptor cytochrome c. Kinetic constants were calculated by fitting the observed data to the Henri-Michaelis-Menten equation or to the adapted model for substrate inhibition using nonlinear least-squares regression and the program SigmaPlot (Systat Software, San Jose, Calif., USA).
Enzymes were purified to homogeneity in a two-step purification. The sample was loaded on a 20 mL PHE Sepharose FF column (HR26/20) equilibrated with 50 mM Na-acetate buffer pH 5.5 containing 20% ammonium sulfate. Proteins were eluted by increasing the concentration of the elution buffer (50 mM Na-acetate buffer pH 5.5) from 0 to 100% in 5 column volumes and fractions containing CDH activity were pooled. After diafiltration with a polyethersulfone flat-stack cross flow module with a cut-off of 10 kDa (Viva Flow 50, Sartorius, Göttingen, Germany) until conductivity of 5 mS cm^−1 in 20 mM Na-acetate pH 5.5 the samples were loaded on a 20 mL Q-Source column (HR26/20) equilibrated with a 20 mM Na-acetate buffer pH 5.5. CDH was eluted by increasing the concentration of the elution buffer (50 mM Na-acetate buffer pH 5.5 containing 0.5 M NaCl) from 0 to 100% in 50 column volumes. Fractions were tested for CDH activity and pooled according to the highest Reinheitszahl (RZ, calculated from the absorbance ratio 420 nm/280 nm). Purified enzymes were concentrated and diafiltered in 50 mM citrate buffer, pH 5.5, aliquoted and kept at 4° C. for further use.

B1: Corynascus thermophilus cellobiose dehydrogenase (CDH), recombinant wild type, SEQ ID NO: 7 (Thermothelomyces fergusii) (protein)
chain: QMTEGTYTHEATGITFKTWTPSDGSTFTFGLALPGDALTNDATEYIGLLRCQITDPSSPGYCGISHGQSGQMTQALLLVAWASEDVVYTSFRYATGYTLPELYTGDAKLTQIASSVSGDSFEVLFRCENCFSWDQNGATGSVSTSNGALVLGYAASKSGLTGATCPDTAEFGFHNNGFGQWGAVLEGATSDSYEEWAQLATITPPTTCDGNGPGDKVCVPAPEDTYDYIVVGAGAGGITVADKLSEAGHKVLLIEKGPPSTGLWNGTMKPEWLEGTDLTRFDVPGLCNQIWVDSAGIACTDTDQMAGCVLGGGTAVNAGLWWKPHPADWDDNFPHGWKSSDLADATERVFSRIPGTWHPSQDGKLYRQEGFEVISQGLANAGWREVDANQEPSEKNRTYSHSVFMFSGGERGGPLATYLASAAQRSNFNLWVNTSVRRAIRTGPRVSGVELECLADGGFNGTVNLKEGGGVIFSAGAFGSAKLLLRSGIGPEDQLEIVASSKDGETFISKNDWIKLPVGHNLIDHLNTDLIITHPDVVFYDFYAAWDNPITEDKEAYLNSRSGILAQAAPNIGPLMWEEVTPSDGITRQFQWTCRVEGDSSKTNSTHAMTLSQYLGRGVVSRGRMGITSGLTTTVAEHPYLHNDGDLEAVIQGIQNVVDALSQVPDLEWVLPPPNTTVEEYVNSLIVSPANRRANHWMGTAKMGLDDGRSGGSAVVDLNTKVYGTDNLFVVDASIFPGMSTGNPSAMIVIVAEQAAQRILSLRY
Km [1]: 86.7 mM | Km [2]: 4.08 mM | kcat [2]: 0.50 s⁻¹ | kcat/Km [2]: 120 M⁻¹ s⁻¹
